Target: the molecule itself

B1: XoxF, lanthanide-dependent methanol dehydrogenase from Methylobacterium extorquens AM1 (enzyme, UniProt C5B120 22-601, looked up)
chain: NESVLKGVANPAEQVLQTVDYANTRYSKLDQINASNVKNLQVAWTFSTGVLRGHEGSPLVVGNIMYVHTPFPNIVYALDLDQGAKIVWKYEPKQDPSVIPVMCCDTVNRGLAYADGAILLHQADTTLVSLDAKSGKVNWSVKNGDPSKGETNTATVLPVKDKVIVGISGGEFGVQCHVTAYDLKSGKKVWRGYSIGPDDQLIVDPEKTTSLGKPIGKDSSLKTWEGDQWKTGGGCTWGWFSYDPKLDLMYYGSGNPSTWNPKQRPGDNKWSMTIWARNPDTGMAKWVYQMTPHDEWDFDGINEMILTDQKFDGKDRPLLTHFDRNGFGYTLDRATGEVLVAEKFDPVVNWATKVDLDKGSKTYGRPLVVSKYSTEQNGEDVNSKGICPAALGTKDQQPAAFSPKTGLFYVPTNHVCMDYEPFRVTYTPGQPYVGATLSMYPAPGSHGGMGNFIAWDNLQGKIKWSNPEQFSAWGGALATAGDVVFYGTLEGFLKAVDSKTGKELYKFKTPSGIIGNVMTYEHKGKQHVAVLSGVGGWAGIGLAAGLTDPNAGLGAVGGYAALSSYTNLGGQLTVFSLPNN
- stoichiometry N: 2
